Experimental findings from US20200199244A1 (published 2020) are described below.

The labels stand for the following.
B1: BMS3h-41-1 (other)
VH: EVQLLESGEGLVQPGGSLRLSCAASGFTFTEHEMIWVRQAPGKGLEWVSSISGNGANTYYADSVKGRFTISRDNSKNTLYLQMNSLRPEDTAVYYCAKEPLRFDYWGQGTLVTVSS
B2: BMS3h-41-2 (other)
VH: B1 VH with E9G, F27S, H32Y, V48I, P88A, Y95F, W106R
B3: BMS3h-41-9 (other)
VH: B1 VH with S7P, E9G, H32Y, Q39K, L45M, Y105D
B4: BMS3h-41-13 (other)
VH: B1 VH with G8A, E9G, T30A, H32Y, P88A, T110A
B5: BMS3h-43-1 (other)
VH: EVQLLESGGGLVQPGGSLRLSCTASGFTFNMYEMSWVRQAPGKGLEWVSGISRRGFTTYYADSVKGRFTISRDNSKNTLYLQMNSLRAEDTAVYYCAKEPITYDLRYARFDYSGQGTLVTVSS
B6: BMS3h-43-5 (other)
VH: B5 VH with M31T, S52G
B7: BMS3h-43-3 (other)
VH: B5 VH with S75F, L105M, S113G
B8: BMS3h-43-11 (other)
VH: B5 VH with Q39K, R54H, L105M, S113W
B9: BMS3h-38-235 (other)
VH: EVQLLASGGGLVQPGGSLRLSCAASGFTFEEEEMIWVRQAPGKGLEWVSAISRNGYSTYYADSVKGRFTISRDNSKNTLYLQMNSLRAEDTAVYYCGKEPFRYDYWGQGTLVTVSS
B10: BMS3h-38-237 (other)
VH: B9 VH with N54G, Y56W
B11: BMS3h-38-238 (other)
VH: B9 VH with N54S
B12: BMS3h-38-3 (other)
VH: B9 VH with V48I, R53G, N54S, Y56G, Y103F
B13: BMS3h-56-1 (other)
VH: EVQLLESGGGLVQPGGSLRLSCAASGFTFRDYEMWWVRQAPGKGLERVSAINPQGTRTYYADSVKGRFTISRDNSKNTLYLQMNSLRAEDTAVYYCAKLPFTFEDWGQGTLVTVSS
B14: BMS3h-56-262 (other)
VH: B13 VH with F101Q, T102L, E104H, W106R
B15: BMS3h-56-246 (other)
VH: B13 VH with Q54W, R57L
B16: BMS3h-56-201 (other)
VH: B13 VH with T102Y, E104Q, D105E
B17: BMS3h-56-269 (other)
VH: B13 VH with T102R, E104S, W106R
B18: BMS3h-56-232 (other)
VH: B13 VH with Q54W, T56S, R57H, E104D
B19: BMS3h-56-217 (other)
VH: B13 VH with Q54W, T56S, R57L
B20: BMS3h-56-6 (other)
VH: B13 VH with T28S, V37Y, T102I, E104D, D105N, W106R
B21: BMS3h-56-206 (other)
VH: B13 VH with Y95H, F101M, T102F, S116N
B22: BMS3h-56-253 (other)
VH: B13 VH with Q54A, T56G, R57Y, Y95H
B23: BMS3h-56-261 (other)
VH: B13 VH with T102F, E104Q, D105E
B24: BMS3h-56-265 (other)
VH: B13 VH with F101Q, T102L, E104Q
B25: BMS3h-56-248 (other)
VH: B13 VH with Q54Y, T56N, R57L, E104D
B26: BMS3h-56-258 (other)
VH: B13 VH with T102Y, E104H, D105E
B27: BMS3h-56-224 (other)
VH: B13 VH with Q54W, T56Q, R57L
B28: BMS3h-56-243 (other)
VH: B13 VH with Q54W, T56G, R57F
B29: BMS3h-56-239 (other)
VH: B13 VH with Q54W, T56S, R57L, E104D
B30: BMS3h-56-202 (other)
VH: B13 VH with F101T, T102Y, E104S, W106R
B31: BMS3h-56-244 (other)
VH: B13 VH with Q54W, T56G, R57L, E104D
B32: BMS3h-56-2 (other)
VH: B13 VH with E104D
B33: BMS3h-56-266 (other)
VH: B13 VH with T102F, E104H, D105E
B34: BMS3h-56-215 (other)
VH: B13 VH with Q54H, T56S, R57L, E104D
B35: BMS3h-56-7 (other)
VH: B13 VH with A92S, Y95H, L99P, T102I, E104G, Q108P
B36: BMS3h-56-270 (other)
VH: B13 VH with F101T, T102L, E104Q
B37: BMS3h-56-203 (other)
VH: B13 VH with T102F, D105E

Substitutions are numbered along the chain they refer to.

Chain of human CD40 (P25942 21-277 limits assumed): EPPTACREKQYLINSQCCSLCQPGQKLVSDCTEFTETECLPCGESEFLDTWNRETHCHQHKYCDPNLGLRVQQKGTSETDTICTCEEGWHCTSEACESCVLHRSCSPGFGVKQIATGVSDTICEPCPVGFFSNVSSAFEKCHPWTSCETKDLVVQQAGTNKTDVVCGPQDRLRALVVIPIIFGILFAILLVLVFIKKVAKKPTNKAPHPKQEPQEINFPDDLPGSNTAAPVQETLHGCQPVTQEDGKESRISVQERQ

The assay concerns the target human CD40 (human, UniProt P25942 21-277). Kind of assay: cell-based or functional assay.
Take B1: the “hIZCD40L-driven Human B Cell Proliferation EC50” value was 104 nM.

For the molecule B2, the “hIZCD40L-driven Human B Cell Proliferation EC50” value came out at 47 nM.

For B3, the “hIZCD40L-driven Human B Cell Proliferation EC50” value is 148 nM.

Regarding B4, the “hIZCD40L-driven Human B Cell Proliferation EC50” value turned out to be 208 nM.

Regarding B5, the “hIZCD40L-driven Human B Cell Proliferation EC50” value was 53 nM.

With B6, the “hIZCD40L-driven Human B Cell Proliferation EC50” value stood at 180 nM.

B7: the “hIZCD40L-driven Human B Cell Proliferation EC50” value came out at 87 nM.

Turning to B8, the “hIZCD40L-driven Human B Cell Proliferation EC50” value is 30 nM.

With B9, the “hIZCD40L-driven Human B Cell Proliferation EC50” value is 0.4 nM.

B10: the “hIZCD40L-driven Human B Cell Proliferation EC50” value amounted to 0.4 nM.

B11: the “hIZCD40L-driven Human B Cell Proliferation EC50” value was 0.7 nM.

Take B12: the “hIZCD40L-driven Human B Cell Proliferation EC50” value turned out to be 10 nM.

For the molecule B13, the “hIZCD40L-driven Human B Cell Proliferation EC50” value worked out at 7 nM.

As to B14, the “hIZCD40L-driven Human B Cell Proliferation EC50” value came to 0.31 nM.

For B15, the “CHO-hCD40L-driven DC Activation IL-12 EC50” value came to 23.2 nM, the “CHO-hCD40L-driven Human B Cell Proliferation EC50” value came out at 34 nM, the “T-B cell MLR EC50” value turned out to be 23.8 nM and the “hIZCD40L-driven Human B Cell Proliferation EC50” value came to 0.24 nM.

As for B16, the “CHO-hCD40L-driven DC Activation IL-12 EC50” value was 0.93 nM, the “CHO-hCD40L-driven Human B Cell Proliferation EC50” value is 11 nM, the “T-B cell MLR EC50” value stood at 7.25 nM and the “hIZCD40L-driven Human B Cell Proliferation EC50” value is 0.12 nM.

B17: the “CHO-hCD40L-driven DC Activation IL-12 EC50” value was determined as 1.8 nM, the “CHO-hCD40L-driven Human B Cell Proliferation EC50” value was determined as 15 nM, the “T-B cell MLR EC50” value turned out to be 9.7 nM and the “hIZCD40L-driven Human B Cell Proliferation EC50” value came out at 0.14 nM.

Regarding B18, the “CHO-hCD40L-driven DC Activation IL-12 EC50” value stood at 7.3 nM, the “CHO-hCD40L-driven Human B Cell Proliferation EC50” value was determined as 37 nM, the “T-B cell MLR EC50” value was found to be 42 nM and the “hIZCD40L-driven Human B Cell Proliferation EC50” value turned out to be 0.27 nM.

Turning to B19, the “CHO-hCD40L-driven DC Activation IL-12 EC50” value came out at 9.4 nM, the “CHO-hCD40L-driven Human B Cell Proliferation EC50” value came to 13 nM, the “T-B cell MLR EC50” value was 16 nM and the “hIZCD40L-driven Human B Cell Proliferation EC50” value stood at 0.1 nM.

With B20, the “hIZCD40L-driven Human B Cell Proliferation EC50” value stood at 4 nM.

Regarding B21, the “CHO-hCD40L-driven DC Activation IL-12 EC50” value was determined as 0.7 nM, the “CHO-hCD40L-driven Human B Cell Proliferation EC50” value was found to be 6 nM, the “T-B cell MLR EC50” value came to 5.25 nM and the “hIZCD40L-driven Human B Cell Proliferation EC50” value is 0.1 nM.

As for B22, the “hIZCD40L-driven Human B Cell Proliferation EC50” value was determined as 0.4 nM.

On to B23, for which the “CHO-hCD40L-driven DC Activation IL-12 EC50” value was 3 nM, the “CHO-hCD40L-driven Human B Cell Proliferation EC50” value was 25.5 nM, the “T-B cell MLR EC50” value came out at 17 nM and the “hIZCD40L-driven Human B Cell Proliferation EC50” value came out at 0.17 nM.

As to B24, the “hIZCD40L-driven Human B Cell Proliferation EC50” value turned out to be 0.36 nM.

In the case of B25, the “hIZCD40L-driven Human B Cell Proliferation EC50” value is 0.36 nM.

Consider B26, for which the “CHO-hCD40L-driven DC Activation IL-12 EC50” value was 1.52 nM, the “CHO-hCD40L-driven Human B Cell Proliferation EC50” value is 11 nM, the “T-B cell MLR EC50” value was determined as 8.7 nM and the “hIZCD40L-driven Human B Cell Proliferation EC50” value came out at 0.079 nM.

As for B27, the “CHO-hCD40L-driven DC Activation IL-12 EC50” value was found to be 18 nM, the “CHO-hCD40L-driven Human B Cell Proliferation EC50” value is 26 nM, the “T-B cell MLR EC50” value turned out to be 47 nM and the “hIZCD40L-driven Human B Cell Proliferation EC50” value was 0.5 nM.

Turning to B28, the “CHO-hCD40L-driven DC Activation IL-12 EC50” value came to 8.8 nM, the “CHO-hCD40L-driven Human B Cell Proliferation EC50” value worked out at 13.5 nM, the “T-B cell MLR EC50” value amounted to 14.2 nM and the “hIZCD40L-driven Human B Cell Proliferation EC50” value was 0.15 nM.

Regarding B29, the “CHO-hCD40L-driven DC Activation IL-12 EC50” value worked out at 5.8 nM, the “CHO-hCD40L-driven Human B Cell Proliferation EC50” value turned out to be 18 nM, the “T-B cell MLR EC50” value amounted to 13.5 nM and the “hIZCD40L-driven Human B Cell Proliferation EC50” value is 0.11 nM.

Consider B30, for which the “CHO-hCD40L-driven DC Activation IL-12 EC50” value amounted to 2.9 nM, the “CHO-hCD40L-driven Human B Cell Proliferation EC50” value turned out to be 39 nM, the “T-B cell MLR EC50” value amounted to 50 nM and the “hIZCD40L-driven Human B Cell Proliferation EC50” value was 0.6 nM.

B31: the “CHO-hCD40L-driven DC Activation IL-12 EC50” value came to 12.6 nM, the “CHO-hCD40L-driven Human B Cell Proliferation EC50” value is 26 nM, the “T-B cell MLR EC50” value was found to be 21 nM and the “hIZCD40L-driven Human B Cell Proliferation EC50” value is 0.17 nM.

In the case of B32, the “CHO-hCD40L-driven Human B Cell Proliferation EC50” value is 326 nM, the “T-B cell MLR EC50” value was found to be 276 nM and the “hIZCD40L-driven Human B Cell Proliferation EC50” value was 3 nM.

As for B33, the “CHO-hCD40L-driven DC Activation IL-12 EC50” value was 2.8 nM, the “CHO-hCD40L-driven Human B Cell Proliferation EC50” value turned out to be 19.5 nM, the “T-B cell MLR EC50” value is 13.8 nM and the “hIZCD40L-driven Human B Cell Proliferation EC50” value worked out at 0.19 nM.

B34: the “CHO-hCD40L-driven DC Activation IL-12 EC50” value was found to be 11 nM, the “CHO-hCD40L-driven Human B Cell Proliferation EC50” value turned out to be 41 nM, the “T-B cell MLR EC50” value turned out to be 31 nM and the “hIZCD40L-driven Human B Cell Proliferation EC50” value turned out to be 0.2 nM.

For the molecule B35, the “hIZCD40L-driven Human B Cell Proliferation EC50” value is 8 nM.

As for B36, the “hIZCD40L-driven Human B Cell Proliferation EC50” value amounted to 0.31 nM.

Regarding B37, the “CHO-hCD40L-driven DC Activation IL-12 EC50” value is 3.7 nM, the “CHO-hCD40L-driven Human B Cell Proliferation EC50” value stood at 51 nM, the “T-B cell MLR EC50” value worked out at 52 nM and the “hIZCD40L-driven Human B Cell Proliferation EC50” value stood at 0.45 nM.
